Results on 1 molecule are retold here after patent US20240025978A1 (BIOVERATIV USA, published 2024).

This experiment deals with T1, activated human complement C1s (Homo sapiens, UniProt P09871 16-688).
T1 sequence: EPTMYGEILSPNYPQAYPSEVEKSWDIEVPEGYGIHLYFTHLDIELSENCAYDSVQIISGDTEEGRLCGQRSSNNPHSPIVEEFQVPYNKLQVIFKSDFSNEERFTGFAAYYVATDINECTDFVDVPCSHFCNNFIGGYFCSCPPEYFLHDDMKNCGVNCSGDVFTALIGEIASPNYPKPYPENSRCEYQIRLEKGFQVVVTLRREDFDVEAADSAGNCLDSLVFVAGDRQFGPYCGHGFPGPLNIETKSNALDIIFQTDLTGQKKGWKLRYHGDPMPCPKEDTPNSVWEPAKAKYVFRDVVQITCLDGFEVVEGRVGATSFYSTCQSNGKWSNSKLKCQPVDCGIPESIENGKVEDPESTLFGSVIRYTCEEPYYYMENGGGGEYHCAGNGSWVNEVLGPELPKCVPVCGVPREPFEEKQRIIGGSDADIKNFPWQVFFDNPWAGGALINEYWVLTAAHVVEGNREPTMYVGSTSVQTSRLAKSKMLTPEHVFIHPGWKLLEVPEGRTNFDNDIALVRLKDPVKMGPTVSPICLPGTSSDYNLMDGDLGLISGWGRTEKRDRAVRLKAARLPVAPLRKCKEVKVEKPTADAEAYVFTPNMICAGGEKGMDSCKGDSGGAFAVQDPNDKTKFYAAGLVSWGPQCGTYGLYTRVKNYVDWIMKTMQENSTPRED
Kind of experiment: cell-based or functional assay.

B1: SAR445088 (antibody, human IgG4 S228P, kappa, V domains shown)
VH: QVQLVQSGAEVKKPGASVKLSCTASGFNIKDDYIHWVKQAPGQGLEWIGRIDPADGHTKYAPKFQVKVTITADTSTSTAYLELSSLRSEDTAVYYCARYGYGREVFDYWGQGTTVTVSS
VL: DIVLTQSPDSLAVSLGERATISCKASQSVDYDGDSYMNWYQQKPGQPPKILIYDASNLESGIPARFSGSGSGTDFTLTISSLEPEDFAIYYCQQSNEDPWTFGGGTKVEIKR
For B1, the “CH50 (50% hemolytic complement activity, liposome-based assay), population PK/PD model, typical IC50” value is 16.6 µg/mL and the “percent CP (Wieslab classical pathway assay), population PK/PD model, typical IC50” value was 96.4 µg/mL.
